Data published in a protein production outcome set (Wang et al. 2014).

Test: label from the status in PepcDB records
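Also: failed if final PepcDB status was selected cloned or expressed and not failed if soluble or beyond.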

| Sequence | protein production |
| --- | --- |
| MSDVSTQSPKVGFVSLGCPKALVDSEQIITQLRAEGYEISGTYGGADLVVVNTCGFIDEAVQESLDAIGEALAENGKVIVTGCLGAKKDAAGQDIITSVHPKVLAVTGPHALGEVMEAVHTHLPKPHDPFIDLVPPQGIKLTPKHYAYLKISEGCNHRCSFCIIPSMRGDLVSRPVAEVMLEAENLLKAGVKELLVISQDTSAYGVDVKFRTGFWNGRPLKTRMTELVGALGELAAQYGAWVRLHYVYPYPSVDEVMPLMAEGKVLPYLDVPLQHAHPEVLKRMKRPANAEKTLDRIRAWREVCPELTIRSTFIAGFPGETEEEFQTLLDFIAEAELDRVGCFAYSPVEGATANDLPGALPDEVREERRARFMEVAERVSARRLQRKVGKTLRVLVDEVNQDGGIGRSSADAPEIDGLVYIAPPSKPYKRYKAGDFVSVKITGADGHDLWGEVLEHHHHHH | failed |
| MSDVTVVAMVTNAYPVNEFQRSSGGTGKVRNIMLEDGTGSIRMALWDSDAETEISEGDVVKLIHGYAKESGEYMDLSTGRFGRLEHHHHHH | failed |
| MSEAEAKLWQHLRAGRLNGYKFRRQQPMGNYIVDFMCVTPKLIVEADGGQHAEQAVYDHARTVYLNSLGFTVLRFWNHEILQQTNDVLAEILRVLQELEKQ | not failed |
| MSEAVPSVVAIDIGTHKVSVLIGKVHAPDNIQVIGMATARNRGMNKGKIVSLDKVISAIKNAVAEAENMAECRVHTAWVSIPTTELQSFYASGRIPIAKADHTITTNEVVRALELAKASHVTPDYYLASAVPLGFELDDSSEWVQNPINMSAHSMTGHYQLMMMPISIMQNLDRAMKGASIGVEKMVVSCLATAEASLLKDEKEYGVCLLDIGAGTTNIAVYLDGRLALARTLQRGGENVTRDIAAVLQTTTEEAERIKILHGCVDLSAIKPDQMIQVQAIDGPQTISRIELAEIIIARYEEILGQVRDELERSGAIHGLYHGVVLTGDACQIEGMISLARRILGVSAHLGNPPLQVYADDQHQASIRRSMYATAAGLLMFSQSELQDTVEDSEEASQRSLWNRVANGWNTLNTKLKAIF | failed |
| MSEAYFRVESGALGPEENFLSLDDILMSHEKLPVRTETAMPRLGAFFLERSAGAETDNAVPQGSKLELPLWLAKGLFDNKRRILSVELPKIYQEGWRTVFSADPNVVDLHKMGPHFYGFGSQLLHFDSPENADISQSLLQTFIGRFRRIMDSSQNAYNEDTSALVARLDEMERGLFQTGQKGLNDFQCWEKGQASQITASNLVQNYKKRKFTDMED | failed |
| MSEGMMLTTLDRLTIYAVLCFISLCALGLGETTQAQLMPVLGTAASIFGIWLEMRSEQDTTQQPHR | failed |
| MSEINYSTVQYYLVLILIFIYLSLFVLEKKWPLRKATRPLLPRLAINFTFTLLVYVIASLFISPLAKATVLFTFSHDFGLLSMLPFNQWVVFILGFLLMDLSFYYWHALNHKLPLLWRFHVVHHADPDLDVSTAMRFHCVEIMYSSLFRLVQLGLIGVSPLLFFCYEFFFQAHTFFQHSNIKLPFRFERLINKIIVTPRMHGIHHSNYLNETNSNYGVVFSFWDRLHQTIKLDIPQQAIIIGVPGYSKPSDNSLIRLLLMPIKAQRHYWQIKKDFHFSRKSKTSDKKVRTLCE | failed |
| MSEKMVAIMKTKPGYGAELVEVDVPKPGPGEVLIKVLATSICGTDLHIYEWNEWAQSRIKPPQIMGHEVAGEVVEIGPGVEGIEVGDYVSVETHIVCGKCYACRRGQYHVCQNTKIFGVDTDGVFAEYAVVPAQNIWKNPKSIPPEYATLQEPLGNAVDTVLAGPISGKSVLITGAGPLGLLGIAVAKASGAYPVIVSEPSDFRRELAKKVGADYVINPFEEDVVKEVMDITDGNGVDVFLEFSGAPKALEQGLQAVTPAGRVSLLGLYPGKVTIDFNNLIIFKALTIYGITGRHLWETWYTVSRLLQSGKLNLDPIITHKYKGFDKYEEAFELMRAGKTGKVVFMLK | not failed |
| MSEKRLPLKPVLRIDFPPGERLGHGKVELMQLIAETGSISAAGRAMDMSYRRAWLLVDALNHMFRQPVICSQRGGKQGGGAALTVFGAELLERYRGMEERMNEALREDIDWLEANRNPQDALNRDREPPTL | not failed |
| MSELEEDFAKILMLKEERIKELEKRLSEKEEEIQELKRKLHKCQSVLPVPSTHIGPRTTRAQGISAEPQTYRSFHDLRQAFRKFTKSERSKDLIKEAILDNDFMKNLELSQIQEIVDCMYPVEYGKDSCIIKEGDVGSLVYVMEDGKVEVTKEGVKLCTMGPGKVFGELAILYNCTRTATVKTLVNVKLWAIDRQCFQTIMMRTGL | failed |
| MSEMAASSAISLLDIKLRRFGVGASNHELRLTKWFKGDQAGAPTRRFTCFADMLAPIRRSEKSEERRFDQKMSAHGAGIKTSSSAVPFASPKSRFLSKQEKFYPRCTPRLTGPQSRDTPPKRDTGIANEKDWGIDLLNENVNEAGTNEDGSSWFRESGHDLGDNGYRCRWSRMGGRSHDGSSEWTETWWEKSDWTGYKELGVEKSGKNSEGDSWWETWQEVLHQDEWSNLARIERSAQKQAKSGTENAGWYEKWWEKYDAKGWTEKGAHKYGRLNEQSWWEKWGEHYDGRGSVLKWTDKWAETELGTKWGDKWEEKFFSGIGSRQGETWHVSPNSDRWSRTWGEEHFGNGKVHKYGKSTTGESWDIVVDEETYYEAEPHYGWADVVGDSTQLLSIQPRERPPGVYPNLEFGPSPPPEPDLPLTNHNDITSVCLAY | failed |
| MSENKKKFDKKGAKNMDEISKTLFAPIYPIIAENIINRFGITAGTCIDIGSGPGALSIALAKQSDFSIRALDFSKHMNEIALKNIADANLNDRIQIVQGDVHNIPIEDNYADLIVSRGSVFFWEDVATAFREIYRILKSGGKTYIGGGFGNKELRDSISAEMIRKNPDWKEFNRKNISQENVERFQNVLDEIGISSYEIILGDEGFWIIISKTDQEVI | not failed |
| MSENLTMSELMDSFELKHFHKGEIVKGKVISVKNDEIIVNIGHFADGVVPRNEISNDKNFDINSINVDDDIFVMVLSGDDGEGNVLLSKKRADAIKVCDDLKEAFEEEKSIKVSLKEVVKGGIVGDFNGLRVFMPASQCAGRRIENLEELVGKTLEVRVIEFNKENRKVVVSRRVIDEEIRNNEKKALWSSIKEGEKRKGKVTRLAKFGAFVDIGGVEGLVHLSDMSWSRVHKPEEVVSVGDEVEVFVSEVDMDRERIALSLKDVIKNPWETLEGLKVGNVVLGKVTNFIKVGAFVEVLPGIEGLVHISEITDENIAKPSDILELGQEVKVKILNIDDENKKMSLSIKDAVETSNEYMQYNDEEEGYSLADLFKGLNLLEHHHHHH | not failed |
| MSENQSEEVQQIEKLYEFSERLNASKDKSQNVEDYEGIIKMSKTSMKAKQLASQLIPRYFKFFPSLSTEAFDAHMDCIDDGDLGVRVQAIRGLPLFCKDTPDILSKIVDVLVQLLNTEEPVERDAVHKALMSLLRQDPKASSTALFTHAGVTPTTDDQIREKVLNFIRDKVIPLKGELLKPQEEMERHITDLIKQSLEDVTGGEFKMFMDFLTSLSIFGGKAPPERMQELVEIIEGQADLNAQFEFSDTDHIDRLISCLQLALPFFARGAPSSRFLIYLNKHIIPVFDKLPEERKLDLLKALADISPYTTAQEARQLLPSIVELLKIYMPARKTGEEMNFTYVECLLYAFHHLAHKVPNATNSLCGYKIVTGQPSDRLGEDFSELNKDFTERLTIVEDLTKATMKKLTQGMTEHNKAMSAAKTDEEKASIVSTLTCAIFYFS | failed |
| MSEPFTPGDLKTILHSKRANLYYLEHCRVLVNGGRVEYVTDAGKQSLYWNIPIANTTTLLLGTGTSVTQAAMRELAKAGVMVGFCGGGGTPLFSAGEVEMEVAWQSPQSEYRPTEYLQWWARFWFDDDKRLQAAKQLQQARLARIRAQWLDNRQLREAGFEIEPSRLTQLLDASLASLERAPDHTALLTEEARLSKQLFRLAAQATAYGEFTRAKRGGGVDPANRFLDHGNYLAYGLGATAAWVLGLPHSLAILHGKTRRGGLVFDAADLVKDAAILPQAFVSAMKGDDEQTFRQQCIEQLARGEALDFMIDQLQRIAEQLGRDG | failed |
| MSEPRLPERAEWGTFALILACYGAWLAVIFGLAGLSLWLAIAAMGLVAALHSSLTHEALHGHPFRYRWLNEALMALPLTLCIPYNRFRDLHLAHHLDANLTDPYDDPESNYLDPAIWSRLPGWQRRLYALNNTLAGRMVLGPLIGTACFLRDEARGALRGDRAILLAWALHLPGMAGVLWVVSLSPMPIWAFALSAYIGLGLLKIRTFLEHRAHEKSRARTVVIEDRGLLAFLFLNNNYHVVHHMNPGAPWYALPALYRAGKERYLGCNEGYSYRSYGEVFRRYFWRAKDPVPHPLWPKP | failed |
| MSEPSLDKSSFNQPSWRNALAGLQMLFVAFGALVLMPLITGLDPSVALFTAGIGTILFQFITKQQVPLFLASSFVFIAPIAYSVQTWGIAVAMGSLFVTGLVYVLIASVVAVRGAGFLHKLMPPVVTGPIIMVIGLSLAPIAVNMAMGKAGDGSAVLFPYADSLIVSMSALITTLLVATLGKGIFRLIPIMAGVFVGYIMASVMGMVSTEAIANSEWFAIPNFVTPEFNLTAILFMLPVAIAPAIEHVGDIIAIGSVTGKDYTKSPGLHRTLLGDGLATSLASLFGGPPNTTYSEVTGAVMLTKMFNPKIMLWAAAFAIGLAFVAKFGLALQTIPAPVMGGILILLFGSIAGVGMNILIKAQVDLAEQRNLVIVSTTLVFGIGGMAIGNDDFSLTGISLCGLVAIALNAIIPQTQLEEESLVQEETIVEDLVEHAKGKEIN | failed |
| MSEPVQLRQHGNAAVAMPLDALLAARTVWRAGQGRATVNGGESTGHAALDALLPDGGWPRRALTELLLPAHGIGEIALLLPTLARMTARGSRVVLVAPPFIPYAPAWQAGGVVLEHLEVVQAEPRAALWAFEQCLRSGACAAVLGWPQTGDARALRRLQVAADSGNCCAFALRDRRHAVNASPAALRLEFLPERDAWQVRKCRGGQVPSQPLRLAH | failed |
| MSEQKAPIIVKRIKKTSGGHHGGAWKIAYADFVTAMMAFFLLMWLLGSTTRGDLEGIAEYFKTPLKVAMQGGTGSGDSSSVIKGGGADLTRKNGQIKKGEVDADRKSYNLKAAQAELERLETAKLKQLKQRLEAAIDRNPTLKQFKRQLLIDITSEGLRIQIVDEQNRPMFNLASAELQPYTKVILHEIAQVLNDVENRISLSGHTDARPYANGERGYSNWELSADRANASRRELIVGGMSEAKMLRVVGLASSVPFTQAKPFDPVNRRISIIVLNKRTEEAITKEASGAEVTDQNGASDALDRRAPPSDVAAPAAAAK | failed |
| MSEQRQDKNLLSEPHKTESDEIEIDLVDIFRKIIAIRRKLYKAIGVGFIIGMIVAVSIPKQYTVKVTLSPEMGSSKGGNGLAGLAASFLGSSATTGEVSDALNASLSSDIVSSTPFLLELLDMKVALSDERTDITLMDYLDRQSSPWWNYVIGLPGMVIGGVKSLFNSDDNDNSLNKVKSGTIELTKEEGIKVNVLKKNISASVDKKTAITSVSVTLQDPKVTAVVADSVVHKLQECIVGYRISKAEEDCIYLEKLYKERQQEYYVAQKKYADYVDTHDNLILQSVRAEQERLQNDMNLAYQVYSQVANQLQVARAKVQEEKPVFAVIEPAVVPQHASSIGLRIYVLLFIFLSVCYTISWNLLGKKIRYILKGSKENQQ | failed |
| MSERAIAHLGPVGTYAEMAALRFQAWLTQQDQQPSRLLACRSIPATLQTLADGAVDYAVVPVENSVEGSVAATLDSLWQLPQLSIQRALILPIAHALISFESDRTAIRQVLSHPQALAQCQQWLQRHLPQAELIPANSTTEALQDLERHPQRAVIASTRAAELYQMPIQSFPINDSPDNRTRFWVISRSPTPGGACTSLNFSLDANVPGALVKPLQILADRRINLSRIESRPTKRSLGEYLFFLDLEADLRDPAIAAAVQAVADCTEQLRVLGSYDSLDFTQSVLVPAQAR | failed |
| MSERKINDEPKSMLLLQRGEEFGKVNNGSKNRAFSSFTKFKIPSQFKTNSSITSFSNRREDIREPNSNSLFSMYNNDVLLKYDTTEVALATTNMFTHTVWNNKSEEIISYGYGSHVSFSCFIGFHY | failed |
